Measurements as given in the DeepSol protein solubility set.

experiment: soluble on expression in E. coli; label from the status in PepcDB or PDB records

Sequence | soluble on expression in E. coli
SVLEGNPEVGSPRTSDLQHRGNKGSCVLSSPGEDAQPGEEPIKYGELIVLGCCEEGGEETEAQRGEVTGPRAHSCYNGCLASGDKGRRRSRLALSRRSHANGVKPDVMHHISTPLVSKALSNRGQHSISYTLSRSHSVIVEYTHDSDTDMFQIGRSTENMIDFVVTDTSPGGGAAEGPSAQSTISRYACRILCDRRPPYTARIYAAGFDASSNIFLGERAAKWRTPDGLMDGLTTNGVLVMHPAGGFSEDSAPGVWREISVCGNVYTLRDSRSAQQRGKLVGGPLHSPPLSLPGPHKLPIPLPKPGDDLQSFCPREPQQAPYQGIPGPGGS | soluble
SKEIDISCVKIEQVIGAGEFGEVCSGHLKLPGKREIFVAIKTLKSGYTEKQRRDFLSEASIMGQFDHPNVIHLEGVVTKSTPVMIITEFMENGSLDSFLRQNDGQFTVIQLVGMLRGIAAGMKYLADMNYVHRALAARNILVNSNLVCKVSDFGLSRFLEDDTSDPTYTSALGGKIPIRWTAPEAIQYRKFTSASDVWSYGIVMWEVMSYGERPYWDMTNQDVINAIEQDYRLPPPMDCPSALHQLMLDCWQKDRNHRPKFGQIVNTLDKMIRNPNSLKAMAPLSS | soluble
SSVDPMTYEAQFFGFTPQTCMLRIYIAFQDYLFEVMQAVEQVILKKLDGIPDCDISPVQIRKCTEKFLCFMKGHFDNLFSKMEQLFLQLILRIPSNILLPEDKCKETPYSEEDFQHLQKEIEQLQEKYKTELCTKQALLAELEEQKIVQAKLKQTLTFFDELHNVGRDHGTSDFRESLVSLVQNSRKLQNIRDNVEKESKRLKIS | soluble
MSLQNFQTEEISALIQNYDFDKALYKLKSHYSDMTFKEADSLLLANNIVYSENNETQQQQYLANLDTLLRDINNNHSEIASFTIYKNDMILVNTHNLYNHGFYKINSSLENIYFNLSEITDNDDQFAKYFKLLNLFFSTISRDAILSTSDKFNDIAIRKHEHSTNISTAFSQIFNECLKSKFEKNNVKTLFAELATYDIIEILNELIENHLKDTSYHLDNFVEAFTGNVMNSSIIIENLYHQIVVQNKLLQLVLLSFLFLDFDTNIFGDKIETLLDINYKQTFFMSFYEFDSKLTQSSMSMHTLQYPHGVQIFSSSELAGYLEFEIATLYSTPIVDSRLYIAFMQEYVLNWREKMEPPQKAINFFKYILEPLYRRNEIDEEFLLAMSMFNCGRFEQAYEFFTMNDYMLHLANKLPPFLKNVQQNSLWYELLKTFTESSTNAHYYLQLSLLFKTYNRLDLALKCVSKSVEYSMKHPSVEEGHHHHHH | soluble
MGSDKIHHHHHHMTEFAIELTGINKSFGAVKANRDVTMSVPKGSIHGIIGENGAGKSTLMSILYGYYHADSGTIRVNGKDVRIRNSQEAIRLGIGMVHQHFMLVETFTVLENIVLGAEGGRLLKGGMEQAREHLKELNKNYSLEVDPDALVGDLGVGLQQRVEILKALYRGADVLILDEPTAVLTPQEADHLFHILRSLKAQGKTVILITHKLREVMDITDNVSVMRAGTVVDNVRTCDVDKEKLADLMVGRKVSLKVDKADSQAGAAVLDVQGLTLIDERKVKLLDNLNFQVRAGEIVGIAGVSGNGQSELLEVLAGMRDPSAGAVVYKGEDLLKLPCRRKPRAAVYRQRGIGHIPEDRSREGLVKAFSTFENAILGYHDDKTLNSGPLYSRKKLVERTRDFIAQFDIRPGNPLLRVGLLSGGNQQKVVLAREIHANPDLLLIGQPTRGVDIGAIEFIHKRLIELRDEGKAILLVSVELEEILALSDRILVMAGGQITGEVAAKDADTISLGLLMGGHKH | not soluble
MSLMQEETFYSVRMRASMNGSHEDGGKHISGGERLIPFHEMKHTVNALLEKGLSHSRGKPDFMQIQFEEVHESIKTIQPLPVHTNEVSCPEEGQKLARLLLEKEGVSRDVIEKAYEQIPEWSDVRGAVLFDIHTGKRMDQTKEKGVRVSRMDWPDANFEKWALHSHVPAHSRIKEALALASKVSRHPAVVAELCWSDDPDYITGYVAGKKMGYQRITAMKEYGTEEGCRVFFIDGSNDVNTYIHDLEKQPILIEWEEDHDSEGHHHHHH | soluble
MQGYHHPLATNHQTQYGTVGQALHIARKLLPFIPDNAGILIVPCCRGGSAFTAGSEGTYSERHGASHDACRWGTDTPLYQDLVSRTRAALAKNPQNKFLGVCWMQGEFDLMTSDYASHPQHFNHMVEAFRRDLKQYHSQLNNITDAPWFCGDTTWYWKENFPHSYEAIYGNYQNNVLANIIFVDFQQQGERGLTNAPDEDPDDLSTGYYGSAYRSPENWTTALRSSHFSTAARRGIISDRFVEAILQFWRER | not soluble
